Measured values as given in US20230065562A1, “DUAL CONTROLS FOR THERAPEUTIC CELL ACTIVATION OR ELIMINATION” (Bellicum Pharmaceuticals, Inc., priority 2015, published 2023).
Numbering of substitutions follows the chain as printed. Numbers in names are those of the source. Entries after “also recorded” stand apart in the source; their conditions may differ.

System: HEK293T/16 cells
Experiment: Secreted alkaline phosphatase (SEAP)-based surrogate killing assay of iCasp9 mutants
Format: cell-based, human
Settings: for basal activity: relative SEAP activity Units: no AP1903; for Basal Activity (relative to wild type/unmodified Caspase-9): SEAP assay without AP1903
Protocol: Early passage HEK293T/16 cells (ATCC, Manassas, Va.) were maintained in IMDM, GlutaMAX™ (Life Technologies, Carlsbad, Calif.) supplemented with 10% FBS, 100 U/mL penicillin, and 100 […] until transfection in a humidified, 37° C., 5% CO2/95% air atmosphere. Cells in logarithmic-phase growth were transiently transfected with 800 ng to 2 μg of expression plasmid encoding iCasp9 mutants and 500 ng of an expression plasmid encoding SRα promoter driven SEAP per million cells in 15-mL conical tubes. […] GeneJammer® Transfection Reagent at a ratio of 3 μl per ug of plasmid DNA was used to transiently transfect HEK293T/16 cells in the absence of antibiotics. 100 μl or 2 mL of the transfection mixture was added to each well in 96-well or 6-well plate, respectively.
Briefly, after 65° C. heat denaturation for 45 minutes to reduce background caused by endogenous (and serum-derived) alkaline phosphatases that are sensitive to heat, 5 μl of supernatants was added to 95 μl of PBS and added to 100 μl of substrate buffer, containing 1 μl of 100 mM 4-methylumbelliferyl phosphate (4-MUP; Sigma, St. Louis, Mo.) re-suspended in 2 M diethanolamine. Hydrolysis of 4-MUP by SEAP produces a fluorescent […] with excitation/emission (355/460 nm), which can be easily measured. Assays were performed in black opaque 96-well plates to minimize fluorescence leakage between wells. […] of the mixture was seeded onto each well of a 96-well plate. […] For the assay, 4-methylumbelliferyl phosphate substrate was hydrolyzed by SEAP to 4-methylumbelliferon, a metabolite that can be excited with 364 nm and detected with an emission filter of 448 nm. Since SEAP is used as a marker for cell viability, reduced SEAP reading corresponds with increased iCaspase-9 activities.

B1: D330A-N405Q: modified iCasp9 double mutant (SEQ ID NO: 28) (protein)
chain: GFGDVGALESLRGNADLAYILSMEPCGHCLIINNVNFCRESGLRTRTGSNIDCEKLRRRFSSLHFMVEVKGDLTAKKMVLALLELARQDHGALDCCVVVILSHGCQASHLQFPGAVYGTDGCPVSVEKIVNIFNGTSCPSLGGKPKLFFIQACGGEQKDHGFEVASTSPEDESPGSNPEPDATPFQEGLRTFDQLAAISSLPTPSDIFVSYSTFPGFVSWRDPKSGSWYVETLDDIFEQWAHSEDLQSLLLRVANAVSVKGIYKQMPGCFQFLRKKLFFKTS
basal activity: relative SEAP activity Units (1 μg iCasp9 per million cells): 205772 Units
basal activity: relative SEAP activity Units (2 μg iCasp9 per million cells): 174366 Units
IC50 (AP1903, SEAP screening assay): 50 pM
Basal Activity (relative to wild type/unmodified Caspase-9): intermediate; also recorded: Decreased

B2: F404A: modified iCasp9, F404A (protein, UniProt P55211 1-416, looked up, variant F404A)
chain: MDEADRRLLRRCRLRLVEELQVDQLWDALLSRELFRPHMIEDIQRAGSGSRRDQARQLIIDLETRGSQALPLFISCLEDTGQDMLASFLRTNRQAAKLSKPTLENLTPVVLRPEIRKPEVLRPETPRPVDIGSGGFGDVGALESLRGNADLAYILSMEPCGHCLIINNVNFCRESGLRTRTGSNIDCEKLRRRFSSLHFMVEVKGDLTAKKMVLALLELAQQDHGALDCCVVVILSHGCQASHLQFPGAVYGTDGCPVSVEKIVNIFNGTSCPSLGGKPKLFFIQACGGEQKDHGFEVASTSPEDESPGSNPEPDATPFQEGLRTFDQLDAISSLPTPSDIFVSYSTFPGFVSWRDPKSGSWYVETLDDIFEQWAHSEDLQSLLLRVANAVSVKGIYKQMPGCANFLRKKLFFKTS
modifications: FKBP12-F36V fusion (iCasp9), CARD deleted
Basal Activity (relative to wild type/unmodified Caspase-9): lowered basal activity and dead

B3: F406W: modified iCasp9, F406W (protein, UniProt P55211 1-416, looked up, variant F406W)
chain: B2 chain with A404F, F406W
modifications: FKBP12-F36V fusion (iCasp9), CARD deleted
Basal Activity (relative to wild type/unmodified Caspase-9): lowered basal activity; also recorded: Decreased

B4: F406A: modified iCasp9, F406A (protein, UniProt P55211 1-416, looked up, variant F406A)
chain: B2 chain with A404F, F406A
modifications: FKBP12-F36V fusion (iCasp9), CARD deleted
Basal Activity (relative to wild type/unmodified Caspase-9): lowered basal activity; also recorded: Decreased

B5: N405T: modified iCasp9, N405T (protein, UniProt P55211 1-416, looked up, variant N405T)
chain: B2 chain with A404F, N405T
modifications: FKBP12-F36V fusion (iCasp9), CARD deleted
Basal Activity (relative to wild type/unmodified Caspase-9): increased basal activity

B6: N405A: modified iCasp9, N405A (protein, UniProt P55211 1-416, looked up, variant N405A)
chain: B2 chain with A404F, N405A
modifications: FKBP12-F36V fusion (iCasp9), CARD deleted
Basal Activity (relative to wild type/unmodified Caspase-9): no effect

B7: F404W: modified iCasp9, F404W (protein)
chain: VDGFGDVGALESLRGNADLAYILSMEPCGHCLIINNVNFCRESGLRTRTGSNIDCEKLRRRFSSLHFMVEVKGDLTAKKMVLALLELARQDHGALDCCVVVILSHGCQASHLQFPGAVYGTDGCPVSVEKIVNIFNGTSCPSLGGKPKLFFIQACGGEQKDHGFEVASTSPEDESPGSNPEPDATPFQEGLRTFDQLDAISSLPTPSDIFVSYSTFPGFVSWRDPKSGSWYVETLDDIFEQWAHSEDLQSLLLRVANAVSVKGIYKQMPGCWNFLRKKLFFKTSASRA
Basal Activity (relative to wild type/unmodified Caspase-9): lowered basal activity; also recorded: Decreased
